B1: Twister Ribozyme (parent)
chain: AACACUGCCAAUGCCGGUCCCAAGCCCGGAUAAAAGUGGAGGGGGCGG

Variants of: B1
Assay: self-cleavage, relative activity (ratio to wild type); higher = more cleavage; co-transcriptional

Variant | self-cleavage
G36U G42A | 0.123
G16A U18C | 0.41
C3U U31A | 0.249
A1U A35G | 0.025
C21G U37C | 0.0765
C21G U37A | 0.101
U6C C8A | 0.047
U6C C8G | 0.0656
C25A G41U | 0.0916
A4G C25A | 0.054
C26A G28C | 0.48
C26A G28U | 0.114
A23G A30C | 0.0761
A2U C25G | 0.0728
C21G G39C | 0.128
A4G G28U | 0.644
A22G G24U | 0.0699
A10C A34G | 0.88
G16U A23C | 0.115
G13A A33G | 0.943
C19G C21A | 0.0839
C19G C21U | 0.101
C3U U37A | 0.533
C3U G38C | 0.288

Variant | self-cleavage
C25G G47U | 0.155
U18A U31G | 0.644
A22G A33C | 0.147
G43A C46A | 0.334
U18A C21A | 0.084
A30G A34U | 0.86
C21G C46U | 0.0875
G28A G41A | 0.385
G17U C21A | 0.0909
U6C C46U | 0.625
A23G A35G | 0.188
A34U A40C | 0.137
C15U G44A | 0.935
A22C U37G | 0.631
G7C G24U | 0.0628
U31C G48U | 1.11
A10C | 1.01
C15A G17A | 0.061
G16U A40U | 0.137
U37G G42A | 0.171
C9A A23C | 0.0979
U18C C21G | 0.0463
A2U G28U | 0.519
A4C C8G | 0.071

Variant | self-cleavage
A22C A30C | 1.07
C21G A40C | 0.0546
A1C A40G | 0.117
A2C A30C | 0.0338
C21G G29C | 0.123
G16A G17C | 0.139
U31G A32C | 0.946
A11U C25U | 1.03
C15U C19A | 0.228
G13U C21G | 0.0567
C26A G38U | 0.221
C19G C25U | 0.151
C5G C14G | 0.0784
G16C G38U | 0.535
C21U A33C | 0.119
A11C A34C | 0.049
C21A C27U | 0.0904
A22U A30C | 0.614
C9A G44U | 0.544
G36A G44C | 0.762
C20U G47C | 0.165
U18A A32C | 0.53
A4G G43A | 0.165
C27U G39U | 0.168

Variant | self-cleavage
A30C A32C | 0.758
A10C U37A | 0.881
C9U G44U | 0.595
C20G G28C | 0.171
A10U A11G | 1.09
C9U A11U | 0.84
G17A A23U | 0.28
G16C U37G | 0.134
A22G G41C | 0.133
A34U U37C | 0.155
A2U C15G | 0.0661
G36C G38C | 0.217
C27U G38A | 0.72
G44C G47A | 0.371
C15A A40C | 0.136
C9A G47C | 0.221
G7C C14A | 0.0617
A1C G41A | 0.143
C15A G29U | 0.607
A23G G42A | 0.128
G28U G43C | 0.151
U6A G16U | 0.43
A10U G28C | 0.768
G28C A34G | 0.491

Variant | self-cleavage
C9G C19A | 0.0927
C25G A35C | 0.182
C27G G36A | 0.0994
U18C G36C | 0.1
C9G A34G | 0.238
C20G G44C | 0.0871
U6C A35U | 0.619
G7U G44C | 0.0951
G36U G48U | 0.454
G36A G47A | 0.557
A10G G41C | 0.384
A30G G38C | 0.868
A22G G39U | 0.109
G41C G43A | 0.141
C5A C20A | 0.0707
A22G C46A | 0.227
G13C A33U | 0.335
U6C C14A | 0.504
A4U G29A | 0.173
G16U A35C | 0.961
G16U A35G | 0.765
C5U C14G | 0.0879
C5U C14U | 0.68
A10C U31A | 0.776

Variant | self-cleavage
C14A G44A | 0.838
G13U C25U | 0.129
U6G G47A | 0.179
U18G A22U | 0.0775
A10G C25U | 0.874
A10G C25A | 0.139
C3U C19A | 0.0875
U12C G28U | 0.88
U12G A23C | 0.401
G24U U37A | 0.0892
C8G G39U | 0.129
G13C G47U | 0.145
A10U C21A | 0.175
G28A A30G | 0.938
G17U C25G | 0.0862
G29U A34U | 0.666
A11C G38U | 1.03
A1C G39C | 0.145
C15A C26U | 0.0725
C19G C20A | 0.0695
U6G C46A | 0.411
A30C C46A | 0.612
C19A A30U | 0.349
A4C G43A | 0.0357

Variant | self-cleavage
C19G C46A | 0.18
G17A G39A | 0.153
U18G G29C | 0.0613
U37A G42C | 0.252
G13A A23C | 0.093
C3U G48A | 0.381
A4G A35G | 0.525
U18C C26G | 0.0519
U37G G47C | 0.306
A4C G44U | 0.134
A32U A40U | 0.193
C20A G24C | 0.0912
U6C G45A | 0.6
C14U C27U | 0.896
A23G G44U | 0.458
G13A C21G | 0.105
C3A G24C | 0.0654
U12C G29U | 0.746
C19G G47A | 0.105
U12A C26U | 0.563
A11C G47U | 0.977
C26U G41U | 0.145
G28C U31G | 0.739
